Drawing on article PMC5663869 (2017), this text covers Kd for 1 molecule.

Where no end group is shown, it is not given here.

For one test, the target named is BAZ2B BRD (human, UniProt Q9UIF8 1-2168). Nature of the test: ITC. On the technique in general: ITC needs no label: the signal is the heat of the interaction.
The next test has as its target BAZ2B PHD–BRD (human, UniProt Q9UIF8 1-2168). Nature of the test: ITC.

Chain of BAZ2B BRD (Q9UIF8 whole entry): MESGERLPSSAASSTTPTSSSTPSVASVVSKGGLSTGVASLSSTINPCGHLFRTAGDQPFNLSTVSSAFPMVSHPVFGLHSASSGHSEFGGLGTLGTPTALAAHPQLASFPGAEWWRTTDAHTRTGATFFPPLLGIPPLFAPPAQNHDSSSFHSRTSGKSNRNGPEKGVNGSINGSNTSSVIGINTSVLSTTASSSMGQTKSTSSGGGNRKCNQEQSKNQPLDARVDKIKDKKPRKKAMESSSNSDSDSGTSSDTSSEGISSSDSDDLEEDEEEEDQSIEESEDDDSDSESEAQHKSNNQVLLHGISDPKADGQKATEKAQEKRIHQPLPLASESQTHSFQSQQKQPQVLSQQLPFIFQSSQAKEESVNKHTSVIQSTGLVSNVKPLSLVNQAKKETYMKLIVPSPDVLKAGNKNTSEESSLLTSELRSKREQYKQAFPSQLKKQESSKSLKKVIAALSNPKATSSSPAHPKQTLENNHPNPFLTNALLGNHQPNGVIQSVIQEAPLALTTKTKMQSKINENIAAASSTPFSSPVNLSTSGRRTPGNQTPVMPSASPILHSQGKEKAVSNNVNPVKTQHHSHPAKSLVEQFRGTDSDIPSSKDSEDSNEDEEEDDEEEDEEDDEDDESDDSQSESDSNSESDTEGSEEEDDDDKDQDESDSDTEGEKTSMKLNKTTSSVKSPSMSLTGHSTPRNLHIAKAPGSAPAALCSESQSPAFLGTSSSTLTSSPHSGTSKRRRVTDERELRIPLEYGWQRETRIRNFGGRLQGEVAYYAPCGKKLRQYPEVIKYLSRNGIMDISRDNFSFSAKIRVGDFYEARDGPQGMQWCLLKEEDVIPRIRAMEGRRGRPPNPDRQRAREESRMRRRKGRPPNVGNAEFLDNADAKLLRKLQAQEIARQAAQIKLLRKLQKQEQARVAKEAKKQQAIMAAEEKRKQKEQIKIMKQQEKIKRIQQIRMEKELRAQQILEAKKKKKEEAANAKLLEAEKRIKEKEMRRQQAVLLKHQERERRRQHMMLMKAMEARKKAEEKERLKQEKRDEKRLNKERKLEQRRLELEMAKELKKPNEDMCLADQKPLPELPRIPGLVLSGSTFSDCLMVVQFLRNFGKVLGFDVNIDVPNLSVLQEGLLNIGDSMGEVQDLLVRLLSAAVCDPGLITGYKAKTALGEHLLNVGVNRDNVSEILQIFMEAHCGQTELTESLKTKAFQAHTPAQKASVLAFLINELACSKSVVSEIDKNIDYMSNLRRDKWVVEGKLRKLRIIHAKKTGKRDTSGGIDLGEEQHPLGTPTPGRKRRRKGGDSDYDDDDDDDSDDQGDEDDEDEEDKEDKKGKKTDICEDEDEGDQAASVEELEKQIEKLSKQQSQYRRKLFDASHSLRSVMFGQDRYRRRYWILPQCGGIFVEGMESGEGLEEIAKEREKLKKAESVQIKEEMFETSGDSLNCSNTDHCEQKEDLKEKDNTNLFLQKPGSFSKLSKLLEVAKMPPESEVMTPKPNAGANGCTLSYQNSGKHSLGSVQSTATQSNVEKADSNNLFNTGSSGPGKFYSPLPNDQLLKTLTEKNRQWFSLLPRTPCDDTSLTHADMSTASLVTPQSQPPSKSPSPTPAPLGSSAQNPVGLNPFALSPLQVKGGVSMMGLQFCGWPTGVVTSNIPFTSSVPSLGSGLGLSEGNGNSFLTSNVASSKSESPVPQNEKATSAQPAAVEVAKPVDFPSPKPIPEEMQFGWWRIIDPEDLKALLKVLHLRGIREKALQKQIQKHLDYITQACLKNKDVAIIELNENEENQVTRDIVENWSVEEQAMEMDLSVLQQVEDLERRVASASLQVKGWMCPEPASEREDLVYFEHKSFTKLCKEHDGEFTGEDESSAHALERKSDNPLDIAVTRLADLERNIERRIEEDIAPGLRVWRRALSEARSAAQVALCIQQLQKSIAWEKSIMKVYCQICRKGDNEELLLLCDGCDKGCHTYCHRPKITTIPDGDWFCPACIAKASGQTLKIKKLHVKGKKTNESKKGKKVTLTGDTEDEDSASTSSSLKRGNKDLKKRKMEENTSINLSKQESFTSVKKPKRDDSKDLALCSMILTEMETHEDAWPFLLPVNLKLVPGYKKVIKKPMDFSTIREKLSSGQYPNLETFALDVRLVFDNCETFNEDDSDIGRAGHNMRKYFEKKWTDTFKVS
Chain of BAZ2B PHD–BRD (Q9UIF8 whole entry): as above

B1: histone H3(11–21aa)K14ac peptide (peptide)
peptide: TGGK(Ac)APRKQLA
A word on the Kd: it is a measure of binding affinity in units of concentration. Read a high Kd as a looser complex. Take B1: the values for the dissociation constant Kd with BAZ2B BRD and with BAZ2B PHD–BRD were 8.2 µM and 10 µM, respectively.
